Source: paper PMC6959147 (2019)

Key:
[1] = molecular target: PD-L1 expressed in its native conformation on activated human PBMCs (human (endogenous in hPBMCs), UniProt Q9NZQ7 19-290); assay: FACS
[2] = molecular target: recombinant human PD-L1, Fc-tagged (rhPD-L1-Fc) (human, UniProt Q9NZQ7 19-238); assay: FACS
recombinant human PD-L1, Fc-tagged (rhPD-L1-Fc), sequence (Q9NZQ7 19-238): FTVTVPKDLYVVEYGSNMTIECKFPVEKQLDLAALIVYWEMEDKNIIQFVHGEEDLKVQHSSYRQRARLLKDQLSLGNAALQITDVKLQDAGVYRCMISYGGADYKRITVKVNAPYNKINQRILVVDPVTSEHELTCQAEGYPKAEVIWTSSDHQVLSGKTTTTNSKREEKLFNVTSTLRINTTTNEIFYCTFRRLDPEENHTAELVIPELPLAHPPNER

PD-L1 expressed in its native conformation on activated human PBMCs, sequence (Q9NZQ7 19-290): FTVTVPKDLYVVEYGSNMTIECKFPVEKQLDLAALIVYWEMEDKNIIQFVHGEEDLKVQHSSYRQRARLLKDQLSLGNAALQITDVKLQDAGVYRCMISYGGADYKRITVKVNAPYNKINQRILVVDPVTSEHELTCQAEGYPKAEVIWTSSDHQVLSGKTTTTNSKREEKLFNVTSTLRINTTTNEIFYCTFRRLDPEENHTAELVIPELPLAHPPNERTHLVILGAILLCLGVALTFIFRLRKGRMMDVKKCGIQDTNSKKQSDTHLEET

Binder	Kd [1]	Kd [2]
mAb 10_3 (IgG4 converted from scFv 10_3) (antibody, V domains shown) VH: not shown VL: NFMLTQPHSVSESPGKTITISCTRSSGSIAGNYVQWYQQRPGSAPIIVIYEDNQRPSGVPDRFSGSIDSSSNSASLTISRLKTEDEADYYCQSYEASNVVFGGGTKLTVL	2000 pM	–
scFv-yeast clone 10_12 (scFv, V domains shown) VH: not shown VL: NFMLTQPHSVSESPGKTITISCTRSSGSIAGNYVQWYQQRPGSAPIIVIYEDNQRPSGVPDRFSGSIDSSSNSASLTISRLKTEDEADYYCQSYEASNVVFGGGTKLTVL	–	730 pM
scFv-yeast clone 10_3 (scFv, V domains shown) VH: not shown VL: NFMLTQPHSVSESPGKTITISCTRSSGSIAGNYVQWYQQRPGSAPIIVIYEDNQRPSGVPDRFSGSIDSSSNSASLTISRLKTEDEADYYCQSYEASNVVFGGGTKLTVL	–	500 pM
scFv-yeast clone 3_17 (scFv, V domains shown) VH: not shown VL: NFMLTQPHSVSESPGKTITISCTRSSGSIAGNYVQWYQQRPGSAPIIVIYEDNQRPSGVPDRFSGSIDSSSNSASLTISRLKTEDEADYYCQSYEASNVVFGGGTKLTVL	–	460 pM
scFv-yeast clone 3_3 (scFv, V domains shown) VH: not shown VL: NFMLTQPHSVSESPGKTITISCTRSSGSIAGNYVQWYQQRPGSAPIIVIYEDNQRPSGVPDRFSGSIDSSSNSASLTISRLKTEDEADYYCQSYEASNVVFGGGTKLTVL	–	600 pM
scFv-yeast clone 3_14 (scFv, V domains shown) VH: not shown VL: NFMLTQPHSVSESPGKTITISCTRSSGSIAGNYVQWYQQRPGSAPIIVIYEDNQRPSGVPDRFSGSIDSSSNSASLTISRLKTEDEADYYCQSYEASNVVFGGGTKLTVL	–	580 pM
wild type anti-PD-L1 scFv PD-L1_1 displayed on yeast (scFv, V domains shown) VH: not shown VL: NFMLTQPHSVSESPGKTITISCTRSSGSIAGNYVQWYQQRPGSAPIIVIYEDNQRPSGVPDRFSGSIDSSSNSASLTISRLKTEDEADYYCQSYEASNVVFGGGTKLTVL	–	4550 pM
scFv-yeast clone 3_7 (scFv, V domains shown) VH: not shown VL: NFMLTQPHSVSESPGKTITISCTRSSGSIAGNYVQWYQQRPGSAPIIVIYEDNQRPSGVPDRFSGSIDSSSNSASLTISRLKTEDEADYYCQSYEASNVVFGGGTKLTVL	–	680 pM
